Read-outs that look alike come from different tables or passages of the source.
What was measured:
human BCMA (human) [1] = biological target: human BCMA (human) (UniProt Q02223); assay: flow cytometry, human BCMA-CHOK1 cells; control
[2] = biological target: cynomolgus monkey BCMA (cynomolgus monkey); assay: flow cytometry, cynomolgus BCMA-CHOK1 cells; control
human GPRC5D (human) [3] = biological target: human GPRC5D (human) (UniProt Q9NZD1); assay: flow cytometry, human GPRC5D-CHOK1 cells; control
human GPRC5D (human) [4] = biological target: human GPRC5D (human) (UniProt Q9NZD1); assay: flow cytometry, NCI-H929 cells; control
[5] = biological target: cynomolgus monkey BCMA (cynomolgus monkey); assay: flow cytometry, cynomolgus BCMA-CHOK1 cells; control; remark: listed apart in the source
human BCMA (human) [6] = biological target: human BCMA (human) (UniProt Q02223); assay: flow cytometry, human BCMA-CHOK1 cells; control; remark: listed apart in the source
[7] = biological target: cynomolgus monkey GPRC5D (cynomolgus monkey); assay: flow cytometry, cynomolgus GPRC5D-CHOK1 cells; control
[8] = biological target: cynomolgus monkey GPRC5D (cynomolgus monkey); assay: as above; remark: listed apart in the source
[9] = biological target: human CD3 protein (Acro, Cat. No. CDD-H52W1) (human) (UniProt P07766); assay: SPR (Biacore), CD3 immobilised on CM5, antibody as analyte, 1:1 fit
[10] = biological target: cynomolgus monkey CD3 protein (Acro, Cat. No. CDD-C52W4) (cynomolgus monkey) (UniProt Q95LI5); assay: as above
[11] = biological target: cynomolgus monkey CD3 on cyno PBMCs (cynomolgus monkey) (UniProt Q95LI5); assay: flow cytometry, cyno PBMCs; negative control
[12] = biological target: dual targets human BCMA and human GPRC5D on tumor cells (NCI-H929, RPMI8226) (human); assay: flow cytometry, RPMI8226 cells (express BCMA and GPRC5D); negative control
human BCMA (human) [13] = biological target: human BCMA (human) (UniProt Q02223); assay: flow cytometry, human BCMA-CHOK1 cells; negative control
human GPRC5D (human) [14] = biological target: human GPRC5D (human) (UniProt Q9NZD1); assay: flow cytometry, human GPRC5D-CHOK1 cells; negative control
[15] = biological target: human CD3 on cells (Jurkat cells, human PBMCs) (human) (UniProt P07766); assay: flow cytometry, Jurkat cells; negative control
[16] = biological target: human CD3 on cells (Jurkat cells, human PBMCs) (human) (UniProt P07766); assay: flow cytometry, human PBMCs; negative control
[17] = biological target: dual targets human BCMA and human GPRC5D on tumor cells (NCI-H929, RPMI8226) (human); assay: flow cytometry, NCI-H929 cells (express BCMA and GPRC5D); negative control
[18] = biological target: cynomolgus monkey BCMA (cynomolgus monkey); assay: flow cytometry, cynomolgus BCMA-CHOK1 cells
[19] = biological target: cynomolgus monkey BCMA protein (Acro, Cat. No. BCA-C52H7) (cynomolgus monkey); assay: SPR (Biacore), antibody captured by anti-human IgG Fc, BCMA as analyte, 1:1 fit
[20] = biological target: human BCMA protein (Acro, Cat. No. BCA-H522y) (human) (UniProt Q02223); assay: as above
[21] = biological target: cynomolgus monkey CD3 on cyno PBMCs (cynomolgus monkey) (UniProt Q95LI5); assay: flow cytometry, cyno PBMCs
[22] = biological target: human CD3 on cells (Jurkat cells, human PBMCs) (human) (UniProt P07766); assay: flow cytometry, Jurkat cells
human BCMA (human) [23] = biological target: human BCMA (human) (UniProt Q02223); assay: flow cytometry, NCI-H929 cells (express BCMA and GPRC5D)
human BCMA (human) [24] = biological target: human BCMA (human) (UniProt Q02223); assay: flow cytometry, RPMI8226 cells (express BCMA and GPRC5D)
human GPRC5D (human) [25] = biological target: human GPRC5D (human) (UniProt Q9NZD1); assay: flow cytometry, human GPRC5D-CHOK1 cells
[26] = biological target: human CD3 on cells (Jurkat cells, human PBMCs) (human) (UniProt P07766); assay: flow cytometry, human PBMCs
soluble BCMA = soluble BCMA (UniProt Q02223); assay: cell-based or functional assay
human BCMA (human) [27] = biological target: human BCMA (human) (UniProt Q02223); assay: flow cytometry, human BCMA-CHOK1 cells

Chain of human GPRC5D (human) (Q9NZD1 whole entry): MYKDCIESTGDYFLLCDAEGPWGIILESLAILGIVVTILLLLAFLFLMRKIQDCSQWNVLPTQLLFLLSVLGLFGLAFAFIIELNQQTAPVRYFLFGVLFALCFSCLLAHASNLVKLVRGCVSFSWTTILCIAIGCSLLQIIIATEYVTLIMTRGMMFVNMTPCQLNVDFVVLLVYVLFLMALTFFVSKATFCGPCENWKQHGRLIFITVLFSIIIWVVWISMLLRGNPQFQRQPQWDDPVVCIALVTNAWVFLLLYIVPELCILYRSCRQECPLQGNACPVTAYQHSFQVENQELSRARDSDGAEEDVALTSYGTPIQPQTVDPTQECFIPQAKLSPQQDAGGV
Chain of human CD3 on cells (Jurkat cells, human PBMCs) (human) (P07766 23-207): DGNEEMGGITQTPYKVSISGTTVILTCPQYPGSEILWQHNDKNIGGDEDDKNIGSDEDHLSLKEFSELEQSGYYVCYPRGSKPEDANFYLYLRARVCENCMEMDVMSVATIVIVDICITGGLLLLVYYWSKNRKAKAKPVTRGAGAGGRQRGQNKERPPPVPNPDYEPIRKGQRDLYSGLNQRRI
Chain of cynomolgus monkey CD3 on cyno PBMCs (cynomolgus monkey) (Q95LI5 22-198): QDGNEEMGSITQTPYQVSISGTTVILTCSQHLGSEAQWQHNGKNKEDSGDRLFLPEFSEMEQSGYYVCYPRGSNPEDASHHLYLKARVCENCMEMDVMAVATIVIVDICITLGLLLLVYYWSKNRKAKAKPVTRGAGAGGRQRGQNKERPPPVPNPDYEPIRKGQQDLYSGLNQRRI
Chain of human CD3 protein (Acro, Cat. No. CDD-H52W1) (human) (P07766 23-126): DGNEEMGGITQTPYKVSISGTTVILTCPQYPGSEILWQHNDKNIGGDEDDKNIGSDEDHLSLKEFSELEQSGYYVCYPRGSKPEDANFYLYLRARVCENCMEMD
Chain of human BCMA protein (Acro, Cat. No. BCA-H522y) (human) (Q02223 1-54 limits assumed): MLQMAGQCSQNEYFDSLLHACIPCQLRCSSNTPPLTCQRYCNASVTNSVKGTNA
Chain of cynomolgus monkey CD3 protein (Acro, Cat. No. CDD-C52W4) (cynomolgus monkey) (Q95LI5 22-117): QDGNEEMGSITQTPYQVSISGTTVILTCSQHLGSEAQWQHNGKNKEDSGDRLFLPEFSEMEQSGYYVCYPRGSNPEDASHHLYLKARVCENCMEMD
Chain of cynomolgus monkey BCMA (cynomolgus monkey) (Q02223 other isoform, or with tags, fused parts or gaps): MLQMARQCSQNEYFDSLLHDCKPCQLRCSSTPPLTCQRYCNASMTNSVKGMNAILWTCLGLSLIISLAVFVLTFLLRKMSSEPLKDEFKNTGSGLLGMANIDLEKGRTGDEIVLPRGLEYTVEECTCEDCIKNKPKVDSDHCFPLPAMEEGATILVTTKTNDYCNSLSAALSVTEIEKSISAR
Chain of human BCMA (human) (Q02223 whole entry): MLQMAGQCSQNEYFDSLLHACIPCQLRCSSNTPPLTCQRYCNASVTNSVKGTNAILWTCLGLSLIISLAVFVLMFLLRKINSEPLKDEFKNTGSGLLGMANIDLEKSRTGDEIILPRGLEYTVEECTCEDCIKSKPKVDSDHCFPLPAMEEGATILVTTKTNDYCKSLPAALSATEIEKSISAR
Chain of soluble BCMA (Q02223 1-54 limits assumed): as the sequence (Q02223 1-54 limits assumed) above
Chain of cynomolgus monkey GPRC5D (cynomolgus monkey) (Q9NZD1 other isoform, or with tags, fused parts or gaps): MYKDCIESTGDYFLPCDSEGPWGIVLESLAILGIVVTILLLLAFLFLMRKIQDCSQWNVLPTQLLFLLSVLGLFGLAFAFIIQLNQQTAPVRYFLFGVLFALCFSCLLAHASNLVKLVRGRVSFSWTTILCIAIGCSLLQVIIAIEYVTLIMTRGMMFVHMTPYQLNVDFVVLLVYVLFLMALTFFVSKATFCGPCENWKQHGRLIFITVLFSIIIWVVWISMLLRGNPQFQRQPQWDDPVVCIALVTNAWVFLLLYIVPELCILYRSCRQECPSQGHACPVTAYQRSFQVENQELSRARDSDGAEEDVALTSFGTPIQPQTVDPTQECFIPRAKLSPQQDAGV
Chain of dual targets human BCMA and human GPRC5D on tumor cells (NCI-H929, RPMI8226) (human) (chain, as listed by the source, chain 1 of 2): as the sequence (Q02223 whole entry) above
Chain of dual targets human BCMA and human GPRC5D on tumor cells (NCI-H929, RPMI8226) (human) (chain, as listed by the source, chain 2 of 2): as the sequence (Q9NZD1 whole entry) above

Substance IgG1 AA (antibody) has a Top MFI (human BCMA (human) [1]) of 232 MFI, a Top MFI [2] of 382 MFI and a Top MFI (human GPRC5D (human) [3]) of 36 MFI. For the same substance, the Top MFI (human GPRC5D (human) [4]) was 178 MFI, the Top MFI [5] was 82.6 MFI and the Top MFI (human BCMA (human) [6]) was 89.1 MFI. For the same substance, the Top MFI [7] was 1840 MFI and the Top MFI [8] was 85 MFI.
“Talquetamab analogue (GPRC5D/CD3) (bispecific antibody)” showed a Kd [9] of 18 nM, a koff [9] of 0.00201 s⁻¹ and a kon [9] of 112000 M⁻¹ s⁻¹. The Kd [10] was 22.2 nM, the koff [10] was 0.00379 s⁻¹ and the kon [10] was 170000 M⁻¹ s⁻¹.
Work on “hIgG1 LALA isotype (Biointron, Cat. No. B109802) (antibody)” yielded a Top MFI [11] of 93.3 MFI, a Top MFI [12] of 112 MFI and a Top MFI (human BCMA (human) [13]) of 119 MFI. The Top MFI (human GPRC5D (human) [14]) was 100 MFI, the Top MFI [15] was 77.6 MFI and the Top MFI [16] was 96.1 MFI. The Top MFI [17] was 104 MFI.
“Teclistamab analogue (BCMA/CD3) (bispecific antibody)” was tested, and the EC50 [18] was 15.3 nM, the Top MFI [18] was 1770 MFI and the Kd [9] was 21 nM. It also gave a koff [9] of 0.00522 s⁻¹, a kon [9] of 248000 M⁻¹ s⁻¹ and a Kd [10] of 21.1 nM. For the same substance, the koff [10] was 0.00336 s⁻¹, the kon [10] was 159000 M⁻¹ s⁻¹ and the Kd [19] was 8.49 nM. It also gave a koff [19] of 0.0235 s⁻¹, a kon [19] of 2.77e+06 M⁻¹ s⁻¹ and a Kd [20] of 0.379 nM. It also gave a koff [20] of 0.00135 s⁻¹, a kon [20] of 3.55e+06 M⁻¹ s⁻¹ and an EC50 [21] of 55.8 nM. The Top MFI [21] was 2060 MFI, the EC50 [22] was 3.22 nM and the Top MFI [22] was 825 MFI. It also gave an EC50 (human BCMA (human) [23]) of 2.43 nM, a Top MFI (human BCMA (human) [23]) of 669 MFI and an EC50 (human BCMA (human) [24]) of 1.17 nM. It also gave a Top MFI (human BCMA (human) [24]) of 169 MFI, a Top MFI (human GPRC5D (human) [25]) of 160 MFI and an EC50 [26] of 6.06 nM. It also gave a Top MFI [26] of 672 MFI, a Ratio (EC50) of TDCC on NCI-H929, 2.5 ug/ml BCMA against 0 ug/ml BCMA (soluble BCMA) of 21 fold and a fold change of TDCC EC50 on NCI-H929 in the presence of 2500 ng/ml soluble BCMA (soluble BCMA) of 25 fold. The EC50 (human BCMA (human) [27]) was 2.63 nM and the Top MFI (human BCMA (human) [27]) was 2280 MFI.
